# Publication PMC9444907
# pKd: −log10 of the molar value. Read-outs that look alike come from different tables or passages of the source.
# Key:
# [1] = biological target: p107ΔL pocket domain (residues 389-972, Δ600-779, Δ888-923) (human); assay: ITC
# [2] = biological target: human Rb pocket domain lacking the single internal loop (residues 380-787; Δ582-642) (human) (UniProt P06400); assay: ITC
# [3] = biological target: Rb pocket domain (Homo sapiens) (UniProt P06400); conditions: cited from earlier work
# [4] = biological target: Rb pocket domain (Homo sapiens) (UniProt P06400); conditions: cited from earlier work; remark: listed apart in the source
# [5] = biological target: p107 pocket domain M865V (human); assay: ITC
# [6] = biological target: p107 pocket domain V939M (human); assay: ITC
Substance,pKd [1],pKd [2],other results
EID1 peptide G179Y/D181Y,6.60,6.77,
HDAC1 triple (3X) mutant peptide R413D/A415Y/E417Y,6.98,,
HPV16 E7 peptide (from UniProt P03129),,,pKd [3]: 8.30
PRDM2 IxCxE peptide (from UniProt Q13029),,,pKd [4]: 6.19

# Now from value to substance, other results behind:
pKd [1],pKd [2],Substance,other results
5.64,,ARID4A peptide E955R,
4.85,5.05,EID1 peptide E176R/E177R,
5.80,6.85,human ARID4A LxCxE motif peptide,pKd [5]: 6.92; pKd [6]: 6.48
5.15,5.22,human EID1 LxCxE motif peptide,
< 5.00,,human HDAC1 LxCxE motif peptide,
